The results in this text go back to publication PMC4692362.

pKd: −log10 of the molar value.

In this experiment the target is FLAG-Nrxn1β(−SS4) (UniProt Q63373). The experiment is described as follows: cell surface binding with Scatchard analysis.

As usually defined, the pKd is −log10 of the Kd, conventionally taken in molar units. “SorCS1-ecto-His (from UniProt Q9JLC4 34-1098) (domain or fragment)” gave a pKd of 8.65.
